Values quoted from earlier work in publication PMC4934914.
Blank lines part the entries; values can stand above or below the substance they belong to.

What was measured:
[1] = target: IscS (Escherichia coli) (UniProt P0A6B7)
[2] = target: BsSufU (Bacillus subtilis) (UniProt O32163)
[3] = target: BsHemH (Bacillus subtilis) (UniProt P32396)
BsHemH (Bacillus subtilis), sequence (P32396 whole entry): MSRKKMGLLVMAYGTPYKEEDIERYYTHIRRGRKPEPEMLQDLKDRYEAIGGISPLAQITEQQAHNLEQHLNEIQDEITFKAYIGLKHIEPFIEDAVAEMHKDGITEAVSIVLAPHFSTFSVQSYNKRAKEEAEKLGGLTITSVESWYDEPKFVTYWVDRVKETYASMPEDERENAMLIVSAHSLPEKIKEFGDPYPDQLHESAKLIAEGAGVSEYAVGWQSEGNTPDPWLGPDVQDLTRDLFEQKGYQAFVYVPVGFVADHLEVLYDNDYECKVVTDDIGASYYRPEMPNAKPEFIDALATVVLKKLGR

IscS (Escherichia coli), sequence (P0A6B7 whole entry): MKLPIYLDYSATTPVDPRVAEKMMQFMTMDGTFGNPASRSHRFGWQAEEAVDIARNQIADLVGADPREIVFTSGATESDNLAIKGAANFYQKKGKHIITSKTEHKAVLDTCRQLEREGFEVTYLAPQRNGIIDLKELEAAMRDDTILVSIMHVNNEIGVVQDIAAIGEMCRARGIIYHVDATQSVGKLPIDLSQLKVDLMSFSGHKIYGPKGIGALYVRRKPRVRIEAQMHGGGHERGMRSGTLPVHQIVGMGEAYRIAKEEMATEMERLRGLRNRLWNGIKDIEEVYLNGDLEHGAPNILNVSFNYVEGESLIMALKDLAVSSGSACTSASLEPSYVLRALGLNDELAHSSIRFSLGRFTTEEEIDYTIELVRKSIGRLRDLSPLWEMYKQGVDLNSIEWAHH
CyaY, sequence (P27838 whole entry): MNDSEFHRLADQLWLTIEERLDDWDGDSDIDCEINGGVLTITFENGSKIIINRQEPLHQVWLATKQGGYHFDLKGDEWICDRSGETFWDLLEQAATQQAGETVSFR
BsFra (frataxin), sequence (Q797E6 whole entry): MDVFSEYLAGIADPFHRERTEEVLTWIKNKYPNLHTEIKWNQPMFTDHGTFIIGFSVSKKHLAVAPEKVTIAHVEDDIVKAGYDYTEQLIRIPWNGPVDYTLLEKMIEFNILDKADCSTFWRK
BsSufU (Bacillus subtilis), sequence (O32163 whole entry): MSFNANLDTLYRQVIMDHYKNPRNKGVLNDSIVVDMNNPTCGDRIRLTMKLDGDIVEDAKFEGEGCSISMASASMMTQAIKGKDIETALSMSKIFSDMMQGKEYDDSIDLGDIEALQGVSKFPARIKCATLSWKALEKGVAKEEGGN
BsSufS, sequence (O32164 whole entry): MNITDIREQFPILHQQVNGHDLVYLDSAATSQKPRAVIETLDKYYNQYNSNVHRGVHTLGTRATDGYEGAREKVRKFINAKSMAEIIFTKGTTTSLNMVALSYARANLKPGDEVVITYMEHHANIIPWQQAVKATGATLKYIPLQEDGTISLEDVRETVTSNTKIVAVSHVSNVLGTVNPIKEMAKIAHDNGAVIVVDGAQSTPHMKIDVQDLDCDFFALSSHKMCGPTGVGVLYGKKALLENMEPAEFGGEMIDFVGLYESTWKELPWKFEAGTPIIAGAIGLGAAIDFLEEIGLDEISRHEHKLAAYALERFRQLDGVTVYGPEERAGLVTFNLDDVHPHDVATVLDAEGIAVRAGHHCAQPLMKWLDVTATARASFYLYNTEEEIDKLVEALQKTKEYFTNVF

Substance: CyaY (from UniProt P27838)
Kd [1]: 18.5 µM

Kd [2]: 2.63 µM
Substance: BsSufS (from UniProt O32164)

Substance: BsFra (frataxin) (from UniProt Q797E6)
Kd [3]: 1.63 µM
